Assays:
Assay in all cases: purified protein, by the assay type
Conditions in all cases: other: apparent, 100 pM enzyme, substrate 0.78 to 50 μM, assay buffer pH 6.0, mean ± s.d., n = 3, 37.0 °C
[1] = system: O=c1c(Cc2ccccc2)nc2c(-c3ccccc3)[nH]c(-c3ccccc3)cn1-2
Description: (§1) The final concentrations of all enzymes were 100 pM. Substrate concentrations varied from 0.78 to 50 μM, and peak bioluminescence intensities at individual substrate concentrations were used to fit the Michaelis-Menten equation. Data are shown as mean and s.d. of three independent experiments.
(§2) DH10B cells containing corresponding pBAD plasmids were grown in 5 mL LB starter cultures containing ampicillin (100 μg/mL) at 37° C. and 250 rpm overnight. Each saturated overnight culture was diluted 100-fold into 2YT media containing the appropriate antibiotics and grown under the same conditions. When OD600 reached 0.7-0.9, the expression culture was induced with L-arabinose (0.2%, w/v %) and incubated at room temperature with shaking at 250 rpm for another 16 h. Cells were harvested by centrifugation at 4700 rpm for 15 min and lysed by sonication. The resulting cell lysate was clarified by centrifugation at 18,000 rpm for 30 min at 4° C. The supernatant was incubated with Ni-NTA agarose beads (Pierce) at 4° C. for 2 h. Agarose beads loaded to a plastic column were sequentially washed with 10 mL of wash buffer 1 (pH 8.0, 50 mM Tris HCl, 20 mM Imidazole, 300 mM NaCl, 1 mM DTT) and 10 mL of wash buffer 2 (pH 8.0, 50 mM Tris HCl, 50 mM Imidazole, 300 mM NaCl, 1 mM DTT), followed by elution with elution buffer (pH 8.0, 50 mM Tris HCl, 300 mM Imidazole, 300 mM NaCl, 1 mM DTT). Proteins were buffer-exchanged into Tris-HCl (50 mM, pH 7.4) containing 1 mM DTT using Thermo Scientific Snakeskin dialysis tubing, and next concentrated using 3-kDa Amicon Ultra Centrifugal Filters (EMD Millipore). Protein concentrations were determined using the Pierce Coomassie Bradford Protein Assay Kit (Thermo Fisher). For storage, glycerol was added to a final concentration of 50% (v/v) and the resultant mixtures were kept at −20° C.
(§3) A Synergy Mx Microplate Reader (BioTek) was used for all in vitro bioluminescence characterizations. For kinetics measurements, no emission filter or monochromator was used. […]

[2] = system: O=c1c(Cc2ccccc2)nc2c([Se]c3ccccc3)[nH]c(-c3ccccc3)cn1-2
Description: as §1, §2, §3

[3] = system: O=c1c(Cc2ccco2)nc2c(Cc3ccccc3)[nH]c(-c3ccccc3)cn1-2
Description: as §1, §2, §3

NanoLuc luciferase (Oplophorus gracihrostris-derived, parent, SEQ ID NO: 1) (Oplophorus gracilirostris; A31E/A60N/A81I/F95D/I117V/K70R/L54V/L99Q/M102K/N193R/P142E/Q151K/Q38R/Q45L/V71I/Y165I)
Km [1]: 5.3 ± 0.2 µM | Km [2]: 17.8 ± 1.0 µM | Km [3]: 11.5 ± 0.6 µM
